Measurements: the supplement of paper PMC9112550, “Optimization of the antimicrobial peptide Bac7 by deep mutational scanning” (BMC Biology, 2022)

What follows are sequences tested on Escherichia coli TOP10 (assay: shrunken log2 fold change of peptide-encoding DNA abundance (4.5 h post-induction vs induction); higher = less antimicrobial activity (less host growth inhibition)). Details: time post-induction: 4.5 h; library: site-saturation at positions 5, 18, 19, 20.
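Note: peptides expressed intracellularly from a pBAD plasmid library in pooled LB shake-flask culture, induced with 0.3% L-arabinose, DNA abundance read by NGS, three biological replicates, DESeq2 with apeglm shrinkage.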

RRIRKRPPRLPRPRPRPHIWPRP and RRIRPRPPRLPRPRPRPEDFPRP are within 0.2 log units of each other in “shrunken log2 fold change” value: 0.143 for the first, -0.0193 for the second.

First: RRIRGRPPRLPRPRPRPEVNPRP
Second: RRIRERPPRLPRPRPRPLNDPRP
The “shrunken log2 fold change” value of the first is higher: 1.62 for the first, -0.272 for the second.

First: RRIRTRPPRLPRPRPRPSRTPRP
Second: RRIRFRPPRLPRPRPRPPMVPRP
The “shrunken log2 fold change” value of the first is higher: 0.305 for the first, -0.391 for the second.

RRIRIRPPRLPRPRPRPWLQPRP and RRIRERPPRLPRPRPRPDDYPRP are within 0.2 log units of each other in “shrunken log2 fold change” value: 0.0391 for the first, -0.118 for the second.

Compared with RRIRERPPRLPRPRPRPFPVPRP, RRIRCRPPRLPRPRPRPGWMPRP is higher in “shrunken log2 fold change” value: -0.214 for the first, 0.0485 for the second.

Going from RRIRCRPPRLPRPRPRPTAGPRP to RRIRMRPPRLPRPRPRPNHEPRP, the “shrunken log2 fold change” value falls from 0.411 to 0.0645.

Going from RRIRTRPPRLPRPRPRPESKPRP to RRIRFRPPRLPRPRPRPFTDPRP, the “shrunken log2 fold change” value falls from 0.214 to -0.0297.

Compared with RRIRLRPPRLPRPRPRPGCEPRP, RRIRNRPPRLPRPRPRPLRHPRP is lower in “shrunken log2 fold change” value: 0.409 for the first, -0.0731 for the second.

RRIRCRPPRLPRPRPRPTIDPRP and RRIRHRPPRLPRPRPRPLDAPRP are within 0.2 log units of each other in “shrunken log2 fold change” value: 0.0362 for the first, -0.148 for the second.

First: RRIRYRPPRLPRPRPRPKQVPRP
Second: RRIRFRPPRLPRPRPRPLYKPRP
The “shrunken log2 fold change” value of the first is higher: 0.234 for the first, -0.813 for the second.

RRIRMRPPRLPRPRPRPHPGPRP and RRIRNRPPRLPRPRPRPPNDPRP are within 0.2 log units of each other in “shrunken log2 fold change” value: 0.293 for the first, 0.182 for the second.

First: RRIRNRPPRLPRPRPRPIQFPRP
Second: RRIRDRPPRLPRPRPRPKYQPRP
The “shrunken log2 fold change” value of the first is higher: -0.178 for the first, -0.452 for the second.

Compared with RRIRCRPPRLPRPRPRPWVNPRP, RRIRVRPPRLPRPRPRPDADPRP is higher in “shrunken log2 fold change” value: -0.19 for the first, 0.793 for the second.

Going from RRIRGRPPRLPRPRPRPIRPPRP to RRIRWRPPRLPRPRPRPPIHPRP, the “shrunken log2 fold change” value falls from 0.209 to -0.448.

RRIRRRPPRLPRPRPRPGHNPRP and RRIRHRPPRLPRPRPRPCGEPRP are within 0.2 log units of each other in “shrunken log2 fold change” value: 0.06 for the first, -0.0851 for the second.

RRIRGRPPRLPRPRPRPFDLPRP and RRIRSRPPRLPRPRPRPANMPRP are within 0.2 log units of each other in “shrunken log2 fold change” value: -0.24 for the first, -0.289 for the second.

First: RRIRDRPPRLPRPRPRPVDFPRP
Second: RRIRKRPPRLPRPRPRPHHTPRP
The “shrunken log2 fold change” value of the first is higher: 0.0775 for the first, -0.254 for the second.

Compared with RRIRRRPPRLPRPRPRPSCGPRP, RRIRPRPPRLPRPRPRPSAYPRP is lower in “shrunken log2 fold change” value: 0.0769 for the first, -0.386 for the second.

RRIRTRPPRLPRPRPRPCKKPRP and RRIRNRPPRLPRPRPRPRWVPRP are within 0.2 log units of each other in “shrunken log2 fold change” value: -0.0502 for the first, -0.172 for the second.

Going from RRIRKRPPRLPRPRPRPNGDPRP to RRIRRRPPRLPRPRPRPTHPPRP, the “shrunken log2 fold change” value rises from -0.024 to 0.543.

Compared with RRIRRRPPRLPRPRPRPVHQPRP, RRIRHRPPRLPRPRPRPSNSPRP is lower in “shrunken log2 fold change” value: 0.208 for the first, -0.798 for the second.

Compared with RRIRDRPPRLPRPRPRPVPAPRP, RRIRGRPPRLPRPRPRPWLPPRP is lower in “shrunken log2 fold change” value: 0.341 for the first, -0.0942 for the second.

First: RRIRWRPPRLPRPRPRPQPHPRP
Second: RRIRDRPPRLPRPRPRPPRAPRP
The “shrunken log2 fold change” value of the first is lower: 0.134 for the first, 1.1 for the second.

RRIRQRPPRLPRPRPRPLSEPRP and RRIRMRPPRLPRPRPRPSFFPRP are within 0.2 log units of each other in “shrunken log2 fold change” value: 0.0232 for the first, 0.0666 for the second.

RRIRIRPPRLPRPRPRPEYLPRP and RRIRHRPPRLPRPRPRPKCNPRP are within 0.2 log units of each other in “shrunken log2 fold change” value: 0.0178 for the first, -0.00178 for the second.

First: RRIRQRPPRLPRPRPRPEDFPRP
Second: RRIRNRPPRLPRPRPRPYHNPRP
The “shrunken log2 fold change” value of the first is higher: -0.0175 for the first, -0.275 for the second.

Going from RRIRKRPPRLPRPRPRPEWNPRP to RRIRKRPPRLPRPRPRPGIIPRP, the “shrunken log2 fold change” value falls from 0.599 to -0.000605.

RRIRERPPRLPRPRPRPGTAPRP and RRIRDRPPRLPRPRPRPMDRPRP are within 0.2 log units of each other in “shrunken log2 fold change” value: -0.0769 for the first, -0.01 for the second.

RRIRVRPPRLPRPRPRPLVWPRP and RRIRDRPPRLPRPRPRPFNVPRP are within 0.2 log units of each other in “shrunken log2 fold change” value: 0.115 for the first, -0.00548 for the second.

Going from RRIRWRPPRLPRPRPRPIFRPRP to RRIRMRPPRLPRPRPRPKNHPRP, the “shrunken log2 fold change” value rises from 0.0199 to 0.412.

Going from RRIRTRPPRLPRPRPRPQEIPRP to RRIRMRPPRLPRPRPRPHCSPRP, the “shrunken log2 fold change” value rises from -0.187 to 0.183.

Compared with RRIRLRPPRLPRPRPRPHWGPRP, RRIRVRPPRLPRPRPRPRWTPRP is lower in “shrunken log2 fold change” value: 0.0796 for the first, -0.142 for the second.

RRIRTRPPRLPRPRPRPNIRPRP and RRIRMRPPRLPRPRPRPWHVPRP are within 0.2 log units of each other in “shrunken log2 fold change” value: -0.0979 for the first, -0.0444 for the second.

RRIRYRPPRLPRPRPRPVQRPRP and RRIRERPPRLPRPRPRPPVGPRP are within 0.2 log units of each other in “shrunken log2 fold change” value: -0.0294 for the first, 0.0345 for the second.

RRIRLRPPRLPRPRPRPELKPRP and RRIRHRPPRLPRPRPRPGEKPRP are within 0.2 log units of each other in “shrunken log2 fold change” value: 0.0568 for the first, -0.102 for the second.

Going from RRIRFRPPRLPRPRPRPNYCPRP to RRIRVRPPRLPRPRPRPNRMPRP, the “shrunken log2 fold change” value rises from -0.499 to -0.093.

RRIRGRPPRLPRPRPRPWCHPRP and RRIRIRPPRLPRPRPRPIPQPRP are within 0.2 log units of each other in “shrunken log2 fold change” value: -0.0582 for the first, -0.14 for the second.

First: RRIRSRPPRLPRPRPRPDTWPRP
Second: RRIRDRPPRLPRPRPRPKHYPRP
The “shrunken log2 fold change” value of the first is higher: -0.0193 for the first, -0.491 for the second.

First: RRIRTRPPRLPRPRPRPKHFPRP
Second: RRIRPRPPRLPRPRPRPTRNPRP
The “shrunken log2 fold change” value of the first is lower: -0.0888 for the first, 0.201 for the second.

First: RRIRERPPRLPRPRPRPRSDPRP
Second: RRIRPRPPRLPRPRPRPFITPRP
The “shrunken log2 fold change” value of the first is higher: -0.323 for the first, -0.678 for the second.

RRIRNRPPRLPRPRPRPHYQPRP and RRIRLRPPRLPRPRPRPCNYPRP are within 0.2 log units of each other in “shrunken log2 fold change” value: -0.568 for the first, -0.593 for the second.

Going from RRIRDRPPRLPRPRPRPQRGPRP to RRIRHRPPRLPRPRPRPMNTPRP, the “shrunken log2 fold change” value falls from 0.0499 to -0.616.

Compared with RRIRWRPPRLPRPRPRPVSDPRP, RRIRARPPRLPRPRPRPELQPRP is higher in “shrunken log2 fold change” value: 0.191 for the first, 0.731 for the second.

First: RRIRMRPPRLPRPRPRPNCNPRP
Second: RRIRLRPPRLPRPRPRPHTIPRP
The “shrunken log2 fold change” value of the first is higher: 0.675 for the first, -0.165 for the second.

RRIRIRPPRLPRPRPRPEGCPRP and RRIRARPPRLPRPRPRPDTKPRP are within 0.2 log units of each other in “shrunken log2 fold change” value: -0.0356 for the first, 0.0293 for the second.

RRIRRRPPRLPRPRPRPDHFPRP and RRIRYRPPRLPRPRPRPRADPRP are within 0.2 log units of each other in “shrunken log2 fold change” value: 0.0408 for the first, 0.0349 for the second.

RRIRHRPPRLPRPRPRPNWSPRP and RRIRQRPPRLPRPRPRPQAYPRP are within 0.2 log units of each other in “shrunken log2 fold change” value: -0.0165 for the first, -0.0257 for the second.

Compared with RRIRSRPPRLPRPRPRPTWTPRP, RRIRFRPPRLPRPRPRPGCNPRP is lower in “shrunken log2 fold change” value: 0.764 for the first, -0.292 for the second.

RRIRQRPPRLPRPRPRPKECPRP and RRIRLRPPRLPRPRPRPHPAPRP are within 0.2 log units of each other in “shrunken log2 fold change” value: -0.0193 for the first, 0.12 for the second.

Compared with RRIRARPPRLPRPRPRPPLWPRP, RRIRRRPPRLPRPRPRPPYYPRP is lower in “shrunken log2 fold change” value: 1.17 for the first, 0.108 for the second.

First: RRIRMRPPRLPRPRPRPYCDPRP
Second: RRIRERPPRLPRPRPRPGPEPRP
The “shrunken log2 fold change” value of the first is lower: -0.556 for the first, 0.129 for the second.

RRIRFRPPRLPRPRPRPFAPPRP and RRIRWRPPRLPRPRPRPTGQPRP are within 0.2 log units of each other in “shrunken log2 fold change” value: 0.0349 for the first, -0.0283 for the second.

Going from RRIRIRPPRLPRPRPRPWDYPRP to RRIRFRPPRLPRPRPRPLEYPRP, the “shrunken log2 fold change” value falls from -0.00975 to -0.474.

First: RRIRMRPPRLPRPRPRPMYLPRP
Second: RRIRFRPPRLPRPRPRPKWLPRP
The “shrunken log2 fold change” value of the first is lower: -0.0638 for the first, 0.251 for the second.

In the case of RRIRWRPPRLPRPRPRPHKDPRP, the “shrunken log2 fold change” value is reported as -0.115.
